Laboratory results: the supplement of paper PMC12042874
± gives the uncertainty stated by the source.

Experiment: amyloid nucleation score (Sup35N fusion, yeast selection) (log enrichment); library NNK3; higher = more nucleation; inactive = no reads after selection
How it was run: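 Random libraries were run with three technical output replicates. In each, psi-negative yeast expressing Sup35N fused to peptides of 20 random codons were induced 24 hours with 100 μM copper sulfate and grown 7 days at 30°C on medium lacking adenine and uracil, and input and output plasmid inserts were Illumina-sequenced. The nucleation score is the DiMSum log enrichment of output over input reads, centred on the mode score of non-aggregating sequences, and sequences under 100 input reads were excluded.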
For MRWMGDGMRSTNSSVNSHGL, the amyloid nucleation score was “inactive”.
For MSAGCLLNL, the amyloid nucleation score was “inactive”.
With MSCLG the amyloid nucleation score was “inactive”.
With MSFRIAKDIMCLVGFSLRCT the amyloid nucleation score was “inactive”.
In the case of MSFSPQKVVAHFCYWSCMRS, the amyloid nucleation score is reported as “inactive”.
With MSHCYYEFARVPKWHERCPS the amyloid nucleation score was “inactive”.
In the case of MSILMMSL, the amyloid nucleation score is reported as “inactive”.
For MSIVIYARLTWNYDSVFSFG, the amyloid nucleation score was “inactive”.
With MSIYLQSTM the amyloid nucleation score was “inactive”.
In the case of MSKDFSRGVQLTDRCLLC, the amyloid nucleation score is reported as “inactive”.
For MSKHRMFLSGRLFRANEVRP, the amyloid nucleation score was “inactive”.
In the case of MSLRSSRHTPVDSQISSMEM, the amyloid nucleation score is reported as “inactive”.
For MSMLKFIYFDYSMDSLHIIW, the amyloid nucleation score was “inactive”.
With MSPFADKRHLADILCVHGS the amyloid nucleation score was “inactive”.
Substance MSQCFVCRFAFLIN has an amyloid nucleation score of 1.57 ± 0.067.
With MSQKEGFSDTGLLLRRSTRS the amyloid nucleation score was “inactive”.
In the case of MSSISIKGKIYDWMFRFCCR, the amyloid nucleation score is reported as “inactive”.
MSTMVYRASRCGRLG showed an amyloid nucleation score of 0.399 ± 0.53.
For MSVIIAIAMYRLFRDRTHPL, the amyloid nucleation score was “inactive”.
In the case of MTGCHCSSVAR, the amyloid nucleation score is reported as -0.299 ± 0.68.
With MTLFDWFFLEIKAGWFRMVV the amyloid nucleation score was “inactive”.
With MTMQKSSIFFLHEAKLNFSA the amyloid nucleation score was “inactive”.
For MTPFIKNS, the amyloid nucleation score was “inactive”.
With MTRKYQNR the amyloid nucleation score was “inactive”.
Substance MVCEKERTWVTSRHWLERYR has an amyloid nucleation score of -0.203 ± 1.3.
For MVGVGSKLGLLAATEVWNEI, the amyloid nucleation score was “inactive”.
With MVLLI the amyloid nucleation score was -0.031 ± 1.
In the case of MVRNRNYSLIYGWVPIQDEE, the amyloid nucleation score is reported as 1.82 ± 0.099.
For MVSGH, the amyloid nucleation score was “inactive”.
For MVVIIFDWIPHLFNLYMYVI, the amyloid nucleation score was “inactive”.
For MVVMRKSVETTYYWLILAIF, the amyloid nucleation score was “inactive”.
MVVQRNDYIVSVFSTLFPRS gave an amyloid nucleation score of 1.6 ± 0.096.
In the case of MWLSTVDRHHINSQALENVD, the amyloid nucleation score is reported as “inactive”.
For MWLVFLTKQNYNNKVQTG, the amyloid nucleation score was “inactive”.
In the case of MYCSTYTVFYYAGIRVLCGD, the amyloid nucleation score is reported as 1.28 ± 0.14.
With MYFMGLFFMTGVGFSMKEVE the amyloid nucleation score was “inactive”.
For MYLDIESDMSNTGAE, the amyloid nucleation score was “inactive”.
In the case of MYMIWSWCVQMLVNLNHAMA, the amyloid nucleation score is reported as “inactive”.
With MYSHLNTCTTAKPQVFCSKL the amyloid nucleation score was “inactive”.
In the case of MYTMSHSGLVLALFDAGSWR, the amyloid nucleation score is reported as “inactive”.
For NACTF, the amyloid nucleation score was “inactive”.
For NAMCR, the amyloid nucleation score was “inactive”.
With NAQWLYCINSD the amyloid nucleation score was “inactive”.
For NASLI, the amyloid nucleation score was “inactive”.
For NAVLEFTPMFMFRTLSGRRV, the amyloid nucleation score was “inactive”.
With NAYSKNVFQHVGMHTWSWYL the amyloid nucleation score was “inactive”.
For NAYSSLQWREIVSHIYQSCQ, the amyloid nucleation score was “inactive”.
NCCNPCFVNLQSR showed an amyloid nucleation score of 2.66 ± 0.066.
For NCGNAPFGFVRP, the amyloid nucleation score was “inactive”.
With NCIAWYQW the amyloid nucleation score was -0.393 ± 0.7.
In the case of NCINVYGNTNLLRGPVGTSG, the amyloid nucleation score is reported as “inactive”.
With NCLLTFDQNYTRGIPAKI the amyloid nucleation score was “inactive”.
For NCMYSLSMQREPFYPSRGVD, the amyloid nucleation score was “inactive”.
For NCNTVKYGMFGAWSNSAV, the amyloid nucleation score was 0.313 ± 0.18.
In the case of NCQLLKLDSGSLSLCRWVHS, the amyloid nucleation score is reported as “inactive”.
In the case of NCRFEGLDKSTS, the amyloid nucleation score is reported as “inactive”.
For NDCRCTIFAAYIKILYKFLG, the amyloid nucleation score was 1.13 ± 0.097.
For NDFIVECMTVESS, the amyloid nucleation score was “inactive”.
In the case of NDGFQYRGHRWCLYNHL, the amyloid nucleation score is reported as “inactive”.
In the case of NDQAYMFYIGVYTTLCIGLK, the amyloid nucleation score is reported as “inactive”.
In the case of NDRVIRVGVN, the amyloid nucleation score is reported as “inactive”.
With NDSGAPPLPSGLQPLHH the amyloid nucleation score was “inactive”.
With NDTFNAK the amyloid nucleation score was “inactive”.
For NDVKFGSGR, the amyloid nucleation score was “inactive”.
For NEHSYLSGSWYPRSHLIYYC, the amyloid nucleation score was “inactive”.
For NEICEHTSVVLLR, the amyloid nucleation score was “inactive”.
NEQVGDGLFCP gave an amyloid nucleation score of -0.057 ± 0.75.
For NFFVTFICAFEEAYMTKQLR, the amyloid nucleation score was 2 ± 0.082.
For NFGLFREVGLFIRLWIANAA, the amyloid nucleation score was “inactive”.
With NFGVMLGVNTLSMSSRVVLG the amyloid nucleation score was 0.6 ± 0.26.
In the case of NFKNMEWFLST, the amyloid nucleation score is reported as “inactive”.
With NFLWYCV the amyloid nucleation score was 1.75 ± 0.089.
NFPNPVVSNLRAYFMD gave an amyloid nucleation score of -0.371 ± 0.96.
With NFPYLAVFLRGFSFSVIDC the amyloid nucleation score was “inactive”.
With NFRNRMRVLFSCS the amyloid nucleation score was “inactive”.
In the case of NGFCCM, the amyloid nucleation score is reported as “inactive”.
Work on NGFIILADCQMVCLRTSDLM yielded an amyloid nucleation score of 1.77 ± 0.065.
In the case of NGFVI, the amyloid nucleation score is reported as “inactive”.
In the case of NGILKPETVRQI, the amyloid nucleation score is reported as “inactive”.
With NGINNCSEIKHVCTGLANPV the amyloid nucleation score was “inactive”.
With NGLLNRQSTSWWSTLNYCGD the amyloid nucleation score was “inactive”.
With NGLPARRV the amyloid nucleation score was “inactive”.
In the case of NGMAFGSRVNRLGGCSEVEV, the amyloid nucleation score is reported as “inactive”.
With NGTNPSYNKNCFSVFVESFN the amyloid nucleation score was “inactive”.
NGWNVMYLFMCRVNSARSIL gave an amyloid nucleation score of 1.77 ± 0.081.
With NHLGM the amyloid nucleation score was “inactive”.
In the case of NHLLFSIPRSIRWKACVQ, the amyloid nucleation score is reported as “inactive”.
With NHYLT the amyloid nucleation score was “inactive”.
In the case of NIFDFVFDEFRLAQPMYKCC, the amyloid nucleation score is reported as “inactive”.
Work on NIFSQWYIISCLFRGKLCEH yielded an amyloid nucleation score of 1 ± 0.13.
In the case of NIFWP, the amyloid nucleation score is reported as “inactive”.
In the case of NIGRNMLRCVNLTT, the amyloid nucleation score is reported as “inactive”.
With NIGWV the amyloid nucleation score was -0.568 ± 1.3.
For NILFWSF, the amyloid nucleation score was “inactive”.
For NILGLKCPSYYPQHVSCGYY, the amyloid nucleation score was “inactive”.
In the case of NILMAGDMHSRA, the amyloid nucleation score is reported as “inactive”.
With NKCSVMCHLDGVTWVPERAV the amyloid nucleation score was “inactive”.
In the case of NKEMIFANYSAGRRYVRYST, the amyloid nucleation score is reported as “inactive”.
With NKIVNECWHLICSFKLGNLQ the amyloid nucleation score was “inactive”.
For NKSYNDRARYVARGRDI, the amyloid nucleation score was “inactive”.
With NKVFMEDQGLKVHWV the amyloid nucleation score was “inactive”.
Substance NKWYSNLQNCCCSLNHTGEG has an amyloid nucleation score of 0.624 ± 0.23.
With NLAAEASVLVYEDELGCRHG the amyloid nucleation score was “inactive”.
For NLAFAVYARTRLKLSPASCV, the amyloid nucleation score was “inactive”.
With NLCNWLSCSRTSCNLRLR the amyloid nucleation score was “inactive”.
With NLDIFGNKMLMGRRGMLNMS the amyloid nucleation score was “inactive”.
For NLDLGVDLGMQPIGSIKKST, the amyloid nucleation score was “inactive”.
In the case of NLFLGCQN, the amyloid nucleation score is reported as “inactive”.
In the case of NLFLRFIVTLWDRFCPYFYQ, the amyloid nucleation score is reported as “inactive”.
In the case of NLKILPAVDHCSDHPMERNE, the amyloid nucleation score is reported as “inactive”.
With NLKKARSTSFIDEPECRPRP the amyloid nucleation score was -0.406 ± 1.1.
In the case of NLLDNRIFYHMD, the amyloid nucleation score is reported as “inactive”.
NLLGTVIIFLRDGSS gave an amyloid nucleation score of 2.13 ± 0.064.
In the case of NLLYSCVYRHQPLYPAMDFP, the amyloid nucleation score is reported as “inactive”.
Substance NLMEYSAC has an amyloid nucleation score of 0.182 ± 0.28.
For NLMGRCTEFRKYI, the amyloid nucleation score was “inactive”.
For NLMWL, the amyloid nucleation score was “inactive”.
In the case of NLSSCIFVVS, the amyloid nucleation score is reported as “inactive”.
In the case of NLYLSDNVCRVMKASVWVHA, the amyloid nucleation score is reported as “inactive”.
For NMKSCFHRMDPHWGTGFHSL, the amyloid nucleation score was “inactive”.
For NMLMMWCFLVSYNEKMRKTV, the amyloid nucleation score was “inactive”.
In the case of NMMAYFVFLGMKANFYMWVW, the amyloid nucleation score is reported as “inactive”.
Substance NMVISYGVWYCDRKD has an amyloid nucleation score of 0.84 ± 0.2.
NMVYLGDLTITMSTFDAFR gave an amyloid nucleation score of 0.53 ± 0.18.
For NMYLSMSLIFNTNYLPGMIS, the amyloid nucleation score was “inactive”.
Work on NMYVNTSCIVYFE yielded an amyloid nucleation score of 3 ± 0.058.
With NNMVHVVDKFFSLILVMVFS the amyloid nucleation score was “inactive”.
With NNSASNPILFGRYVTASREY the amyloid nucleation score was “inactive”.
With NNTDCYESNVVFFSTAIHLS the amyloid nucleation score was 1.6 ± 0.12.
For NNTLV, the amyloid nucleation score was “inactive”.
With NNTNAQKLLINV the amyloid nucleation score was “inactive”.
NNTSGNLVCFSVKCNVIVPY showed an amyloid nucleation score of 2.42 ± 0.056.
In the case of NNVKRSSPDSQVPSQVSMRF, the amyloid nucleation score is reported as “inactive”.
For NNVVVL, the amyloid nucleation score was “inactive”.
For NPDCSQTMARGLRNSLVFLQ, the amyloid nucleation score was “inactive”.
For NPFMW, the amyloid nucleation score was “inactive”.
In the case of NPLFMQSLKLRCCRNLRFRS, the amyloid nucleation score is reported as “inactive”.
For NQEQWWLATAYPNVSWSIKL, the amyloid nucleation score was “inactive”.
With NQGWTCWCVSCCLGVKIVMI the amyloid nucleation score was “inactive”.
For NRASSVSCS, the amyloid nucleation score was “inactive”.
With NRAVNFIVWWMYL the amyloid nucleation score was “inactive”.
In the case of NRDNAEQYYRPTVTVCSEGW, the amyloid nucleation score is reported as “inactive”.
Work on NRFCLRSTLSYSWYGDRSWA yielded an amyloid nucleation score of 0.185 ± 0.7.
With NRFLNIQKRSTPLNLPSSSV the amyloid nucleation score was “inactive”.
In the case of NRGNSIRRDNWFRVILRTCH, the amyloid nucleation score is reported as “inactive”.
For NRILGGNLYVNVIDRIGGMV, the amyloid nucleation score was “inactive”.
For NRLNGSLILDRHLL, the amyloid nucleation score was “inactive”.
With NRMRPIDNLGHISMFGVLGG the amyloid nucleation score was “inactive”.
For NRQVNCSFEGFSNRSKVYAY, the amyloid nucleation score was “inactive”.
For NRRFITYFSFRSPEVYKMQY, the amyloid nucleation score was “inactive”.
In the case of NRVYA, the amyloid nucleation score is reported as “inactive”.
NRWTIPCFCGRKL showed an amyloid nucleation score of 1.12 ± 0.089.
For NRYIGNIYEKNGNSNFKPSI, the amyloid nucleation score was “inactive”.
In the case of NRYLLRVVLYNSLTRLTVGF, the amyloid nucleation score is reported as “inactive”.
In the case of NSCSVVMFPYH, the amyloid nucleation score is reported as “inactive”.
For NSDMESDSHSNKVVRYLCGP, the amyloid nucleation score was “inactive”.
With NSFDNFFSLNLNTGAYY the amyloid nucleation score was “inactive”.
With NSFDSMGSMFANRYRLNFPR the amyloid nucleation score was “inactive”.
For NSGCQMFL, the amyloid nucleation score was “inactive”.
Substance NSGHLVLGCMYIFSNGFVDR has an amyloid nucleation score of 1.22 ± 0.14.
In the case of NSIQEDV, the amyloid nucleation score is reported as “inactive”.
In the case of NSKSVSWMFMPLQAFLCLIG, the amyloid nucleation score is reported as “inactive”.
